Substitutions are numbered along the chain they refer to.

Assay [1] addresses T1, human Bcl-xL, full length, wild type (human, UniProt Q07817-1 1-233).
T1 construct: human Bcl-xL, full length with the C-terminal hydrophobic helix α9; also called Bcl-xL wt; unlabeled wild type Bcl-xL; source: E. coli, purified from the soluble fraction (chitin resin, anion exchange, Superdex 200)
As to the kind of experiment: HDX-MS; conditions Bcl-xL; Bcl-xL + LUVs; Bcl-xL + LUVs + cBid; cBid; proteins (340 pmol) pre-incubated with LUVs 1 h at 37 °C, centrifuged at 20'000 x g, the pellet used for deuterium labelling. As to conditions: both partners purified.

In assay [2] the target is T1, human Bcl-xL, full length, wild type. As to the kind of experiment: co-sedimentation; spin-labeled protein incubated with LUVs alone or with the unlabeled partner; supernatant and pellet fractions quantified by room temperature continuous wave EPR (spin counting). As to conditions: both partners purified.

T1 sequence (Q07817 whole entry): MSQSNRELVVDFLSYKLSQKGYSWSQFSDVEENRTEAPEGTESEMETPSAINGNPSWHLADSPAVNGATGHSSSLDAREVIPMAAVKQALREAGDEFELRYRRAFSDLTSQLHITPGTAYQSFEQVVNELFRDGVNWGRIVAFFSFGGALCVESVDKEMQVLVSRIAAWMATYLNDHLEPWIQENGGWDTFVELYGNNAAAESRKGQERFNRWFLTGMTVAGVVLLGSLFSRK

B1: cBid (mouse Bid cleaved by Caspase 8), wild type (complex)
chain 1: MDSEVSNGSGLGAEHITDLLVFGFLQSSGCTRQELEVLGRELPVQAYWEADLEDELQTD
chain 2: GSQASRSFNQGRIEPDSESQEEIIHNIARHLAQIGDEMDHNIQPTLVRQLAAQFMNGSLSEEDKRNCLAKALDEVKTAFPRDMENDKAMLIMTMLLAKKVASHAPSLLRDVFHTTVNFINQNLFSYVRNLVRNEMD
notes: also called cBid wt; cBidWT; source: E. coli, purified from the soluble fraction (Ni-NTA), cleaved with Caspase 8, purified again with Ni-NTA; not shown: His tag (on Bid before cleavage)
Regarding B1, the binding result in assay [1] is “binds”.

B2: cBid spin-labeled at the natural cysteine 126 (complex, mouse)
chain 1: B1 chain 1 with C30S
chain 2: B1 chain 2
modifications: MTSL spin label on cysteine 126
notes: p7 fragment of mouse Bid; natural cysteine C30 replaced by serine (singly labeled variant); tBid fragment of mouse Bid with its natural cysteine C126; source: E. coli, purified (Ni-NTA), cleaved with Caspase 8, purified again with Ni-NTA, spin-labeled with MTSL; not shown: His tag (on Bid before cleavage)
Consider B2, for which the binding result in assay [2] is listed as “binds”.
